From the supplement of paper PMC11246515
± gives the standard deviation of the averaged measurements.

Assay: total protein half-life in vivo (active degradation + dilution); higher = more stable protein
[1] = E. coli NCM3722 delta-clpP, growth: N-lim chemostat, doubling time 6 h
[2] = E. coli NCM3722 delta-hslV, growth: N-lim chemostat, doubling time 6 h
[3] = E. coli NCM3722 delta-lon, growth: N-lim chemostat, doubling time 6 h
[4] = E. coli NCM3722 delta-smpB, growth: N-lim chemostat, doubling time 6 h
[5] = wild type E. coli NCM3722, growth: C-lim chemostat, doubling time 3 h
[6] = wild type E. coli NCM3722, growth: C-lim chemostat, doubling time 6 h
[7] = wild type E. coli NCM3722, growth: C-lim chemostat, doubling time 12 h
[8] = wild type E. coli NCM3722, growth: N-lim chemostat, doubling time 6 h
[9] = wild type E. coli NCM3722, growth: N-lim chemostat, doubling time 12 h
[10] = wild type E. coli NCM3722, growth: P-lim chemostat, doubling time 6 h
[11] = wild type E. coli NCM3722, growth: P-lim chemostat, doubling time 12 h
[12] = E. coli NCM3722 delta-clpP delta-lon delta-hslV, growth: N-lim chemostat, doubling time 6 h

Row | Sequence | total protein half-life in vivo [1] | total protein half-life in vivo [2] | total protein half-life in vivo [3] | total protein half-life in vivo [4] | total protein half-life in vivo [5] | total protein half-life in vivo [6] | total protein half-life in vivo [7] | total protein half-life in vivo [8] | total protein half-life in vivo [9] | total protein half-life in vivo [10] | total protein half-life in vivo [11] | total protein half-life in vivo [12]
1 | MNIIAIMGPHGVFYKDEPIKELESALVAQGFQIIWPQNSVDLLKFIEHNPRICGVIFDWDEYSLDLCSDINQLNEYLPLYAFINTHSTMDVSVQDMRMALWFFEYALGQAEDIAIRMRQYTDEYLDNITPPFTKALFTYVKERKYTFCTPGHMGGTAYQKSPVGCLFYDFFGGNTLKADVSISVTELGSLLDHTGPHLEAEEYIARTFGAEQSYIVTNGTSTSNKIVGMYAAPSGSTLLIDRNCHKSLAHLLMMNDVVPVWLKPTRNALGILGGIPRREFTRDSIEEKVAATTQAQWPVHAVITNSTYDGLLYNTDWIKQTLDVPSIHFDSAWVPYTHFHPIYQGKSGMSGERVAGKVIFETQSTHKMLAALSQASLIHIKGEYDEEAFNEAFMMHTTTSPSYPIVASVETAAAMLRGNPGKRLINRSVERALHFRKEVQRLREESDGWFFDIWQPPQVDEAECWPVAPGEQWHGFNDADADHMFLDPVKVTILTPGMDEQGNMSEEGIPAALVAKFLDERGIVVEKTGPYNLLFLFSIGIDKTKAMGLLRGLTEFKRSYDLNLRIKNMLPDLYAEDPDFYRNMRIQDLAQGIHKLIRKHDLPGLMLRAFDTLPEMIMTPHQAWQRQIKGEVETIALEQLVGRVSANMILPYPPGVPLLMPGEMLTKESRTVLDFLLMLCSVGQHYPGFETDIHGAKQDEDGVYRVRVLKMAG | 5.56 ± 0.19 h | 5.32 ± 0.2 h | 5.36 ± 0.26 h | 5.38 ± 0.089 h | 3.21 ± 0.1 h | 7.21 ± 0.98 h | 10.7 ± 3.7 h | 6.16 ± 1.5 h | 10.7 ± 0.83 h | 6.88 ± 1.5 h | 11.92 ± 0.053 h | –
2 | MNILGFFQRLGRALQLPIAVLPVAALLLRFGQPDLLNVAFIAQAGGAIFDNLALIFAIGVASSWSKDSAGAAALAGAVGYFVLTKAMVTINPEINMGVLAGIITGLVGGAAYNRWSDIKLPDFLSFFGGKRFVPIATGFFCLVLAAIFGYVWPPVQHAIHAGGEWIVSAGALGSGIFGFINRLLIPTGLHQVLNTIAWFQIGEFTNAAGTVFHGDINRFYAGDGTAGMFMSGFFPIMMFGLPGAALAMYFAAPKERRPMVGGMLLSVAVTAFLTGVTEPLEFLFMFLAPLLYLLHALLTGISLFVATLLGIHAGFSFSAGAIDYALMYNLPAASQNVWMLLVMGVIFFAIYFVVFSLVIRMFNLKTPGREDKEDEIVTEEANSNTEEGLTQLATNYIAAVGGTDNLKAIDACITRLRLTVADSARVNDTMCKRLGASGVVKLNKQTIQVIVGAKAESIGDAMKKVVARGPVAAASAEATPATAAPVAKPQAVPNAVSIAELVSPITGDVVALDQVPDEAFASKAVGDGVAVKPTDKIVVSPAAGTIVKIFNTNHAFCLETEKGAEIVVHMGIDTVALEGKGFKRLVEEGAQVSAGQPILEMDLDYLNANARSMISPVVCSNIDDFSGLIIKAQGHIVAGQTPLYEIKK | 6.68 ± 1.1 h | 6.55 ± 1.2 h | 5.86 ± 0.12 h | 5.83 ± 0.32 h | 3.142 ± 0.004 h | 5.88 ± 0.17 h | 11.9 ± 1.4 h | 5.91 ± 0.66 h | 11.5 ± 0.56 h | 6.04 ± 0.14 h | 12.6 ± 0.78 h | 6.3 ± 0.38 h
3 | MNILQFNVRLAEGGAAGVALDLHQRALQQGLASHFVYGYGKGGKESVSHQNYPQVIKHTPRMTAMANIALFRLFNRDLFGNFNELYRTITRTAGPVVLHFHVLHSYWLNLKSVVRFCEKVKNHKPDVTLVWTLHDHWSVTGRCAFTDGCEGWKTGCQKCPTLNNYPPVKIDRAHQLVAGKRQLFREMLALGCQFISPSQHVADAFNSLYGPGRCRIINNGIDMATEAILADLPPVRETQGKPKIAVVAHDLRYDGKTNQQLVREMMALGDKIELHTFGKFSPFTAGNVVNHGFETDKRKLMSALNQMDALVFSSRVDNYPLILCEALSIGVPVIATHSDAAREVLQKSGGKTVSEEEVLQLVQLSKPEIAQAIFGTTLAEFSQRSRAAYSGQQMLEEYVNFYQNL | – | – | 5.88 ± 0.64 h | 5.05 ± 0.76 h | – | – | – | – | – | – | – | –
4 | MNINRDKIVQLVDTDTIENLTSALSQRLIADQLRLTTAESCTGGKLASALCAAEDTPKFYGAGFVTFTDQAKMKILSVSQQSLERYSAVSEKVAAEMATGAIERADADVSIAITGYGGPEGGEDGTPAGTVWFAWHIKGQNYTAVMHFAGDCETVLALAVRFALAQLLQLLL | 4.57 ± 0.048 h | 4.76 ± 0.46 h | 5.18 ± 0.69 h | 4.38 ± 0.19 h | 3.14 ± 0.69 h | 6.15 ± 0.4 h | 9.68 h | 4.8 ± 0.062 h | 11.1 ± 3.5 h | 5.68 ± 0.57 h | 12.6 ± 0.67 h | 4.97 ± 0.3 h
5 | MNINVAELLNGNYILLLFVVLALGLCLGKLRLGSIQLGNSIGVLVVSLLLGQQHFSINTDALNLGFMLFIFCVGVEAGPNFFSIFFRDGKNYLMLALVMVGSALVIALGLGKLFGWDIGLTAGMLAGSMTSTPVLVGAGDTLRHSGMESRQLSLALDNLSLGYALTYLIGLVSLIVGARYLPKLQHQDLQTSAQQIARERGLDTDANRKVYLPVIRAYRVGPELVAWTDGKNLRELGIYRQTGCYIERIRRNGILANPDGDAVLQMGDEIALVGYPDAHARLDPSFRNGKEVFDRDLLDMRIVTEEVVVKNHNAVGKRLAQLKLTDHGCFLNRVIRSQIEMPIDDNVVLNKGDVLQVSGDARRVKTIADRIGFISIHSQVTDLLAFCAFFVIGLMIGMITFQFSTFSFGMGNAAGLLFAGIMLGFMRANHPTFGYIPQGALSMVKEFGLMVFMAGVGLSAGSGINNGLGAIGGQMLIAGLIVSLVPVVICFLFGAYVLRMNRALLFGAMMGARTCAPAMEIISDTARSNIPALGYAGTYAIANVLLTLAGTIIVMVWPGLG | 6.38 ± 1 h | – | – | 6.19 ± 0.91 h | – | 7.06 ± 0.39 h | – | 6.17 ± 0.47 h | – | 7.316 ± 0.023 h | 12 ± 2.5 h | 6.56 ± 0.66 h
6 | MNIRRKNRLWIACAVLAGLALTIGLVLYALRSNIDLFYTPGEILYGKRETQQMPEVGQRLRVGGMVMPGSVQRDPNSLKVTFTIYDAEGSVDVSYEGILPDLFREGQGVVVQGELEKGNHILAKEVLAKHDENYTPPEVEKAMEANHRRPASVYKDPAS | 4.46 h | 4.36 ± 0.36 h | 4.62 ± 0.13 h | 4.65 ± 0.1 h | 2.91 ± 0.059 h | 6.09 ± 0.43 h | 8.92 ± 0.19 h | 4.31 ± 0.63 h | 9.42 ± 2.7 h | 4.67 h | 10.05 ± 0.046 h | 5.21 ± 0.82 h
7 | MNISDVAKITGLTSKAIRFYEEKGLVTPPMRSENGYRTYTQQHLNELTLLRQARQVGFNLEESGELVNLFNDPQRHSADVKRRTLEKVAEIERHIEELQSMRDQLLALANACPGDDSADCPIIENLSGCCHHRAG [P0A9G4] | 1.45 h | – | 2.12 ± 0.77 h | – | 1.3 h | 1.95 h | 2.21 h | – | 1.07 h | 0.945 h | 2.28 ± 0.59 h | 4.71 ± 0.63 h
8 | MNISSLRKAFIFMGAVAALSLVNAQSALAANESAKDMTCQEFIDLNPKAMTPVAWWMLHEETVYKGGDTVTLNETDLTQIPKVIEYCKKNPQKNLYTFKNQASNDLPN [P0AET2] | > 8 h | – | – | – | – | – | – | – | – | – | – | –
